Data taken from the supplement of paper PMC9876800.

Test system: peptide library, one residue held at a place counted from the S/T acceptor
Assay: relative phosphorylation of the sub-library (ratio to the mean residue at this position); human; higher = residue favoured
In short: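 Relative sub-library phosphorylation is a ratio to the mean residue at the same position. Purified recombinant kinases were incubated under kinase-specific conditions with biotinylated degenerate peptide sub-libraries, each fixing one residue at one position around a central Ser/Thr, using 50 μM peptide and 50 μM ATP spiked with γ-32P-ATP for 90 min. Spots captured on streptavidin membranes were phosphorimaged and quantified by densitometry.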

ACVR1B, construct: aa150-end, sequence (P36896 150-505, looked up): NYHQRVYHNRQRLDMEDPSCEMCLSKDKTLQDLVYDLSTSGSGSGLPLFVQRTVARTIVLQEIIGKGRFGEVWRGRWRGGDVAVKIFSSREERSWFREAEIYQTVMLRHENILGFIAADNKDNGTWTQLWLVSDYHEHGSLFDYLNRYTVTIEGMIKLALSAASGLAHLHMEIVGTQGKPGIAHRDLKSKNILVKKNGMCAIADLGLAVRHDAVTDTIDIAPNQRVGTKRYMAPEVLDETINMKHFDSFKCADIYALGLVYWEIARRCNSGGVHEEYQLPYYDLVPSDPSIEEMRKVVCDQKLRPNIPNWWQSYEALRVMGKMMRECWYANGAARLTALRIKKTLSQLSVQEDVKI
AURKA, construct: Full length, sequence (O14965 whole entry, looked up): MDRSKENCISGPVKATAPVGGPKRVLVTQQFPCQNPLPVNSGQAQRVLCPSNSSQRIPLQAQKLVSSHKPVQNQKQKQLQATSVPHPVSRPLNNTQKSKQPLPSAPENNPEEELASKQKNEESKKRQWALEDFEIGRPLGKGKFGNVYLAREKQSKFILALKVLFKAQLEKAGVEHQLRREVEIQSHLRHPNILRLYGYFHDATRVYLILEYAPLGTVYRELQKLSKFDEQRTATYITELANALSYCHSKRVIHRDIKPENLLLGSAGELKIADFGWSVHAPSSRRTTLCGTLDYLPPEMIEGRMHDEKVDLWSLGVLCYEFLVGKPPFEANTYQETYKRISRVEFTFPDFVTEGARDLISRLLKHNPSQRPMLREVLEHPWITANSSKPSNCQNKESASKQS

ACVR1B, construct: aa150-end (from UniProt P36896)
relative phosphorylation
Details | at +1 | at +2 | at +3 | at +4 | at -1 | at -2 | at -3 | at -4 | at -5
A fixed | 0.754 | 1.35 | 0.905 | 1.06 | 0.833 | 0.721 | 0.953 | 0.891 | 1.03
D fixed | 1.17 | 1.11 | 1.11 | 1.24 | 1.05 | 1.58 | 1.35 | 1.55 | 1.12
E fixed | 1.75 | 0.847 | 1.54 | 1.19 | 1.32 | 6.31 | 1.52 | 1.26 | 0.838
F fixed | 1.09 | 1.01 | 1.19 | 0.997 | 0.896 | 0.497 | 1.03 | 1.02 | 1.13
G fixed | 0.796 | 0.995 | 1.22 | 0.798 | 0.65 | 0.801 | 1.12 | 1.03 | 0.975
H fixed | 0.749 | 0.809 | 0.948 | 0.968 | 1.16 | 0.606 | 1.02 | 0.997 | 1.24
I fixed | 1.21 | 1.13 | 1.06 | 0.855 | 1 | 0.622 | 0.855 | 0.874 | 0.837
K fixed | 0.542 | 0.649 | 0.605 | 0.896 | 0.747 | 0.483 | 0.798 | 0.987 | 1.11
L fixed | 1.05 | 1.22 | 1.01 | 0.818 | 1.33 | 0.597 | 0.85 | 0.936 | 0.931
M fixed | 1.33 | 0.865 | 1.04 | 0.967 | 1.45 | 0.497 | 0.998 | 1.06 | 0.968
N fixed | 0.774 | 0.902 | 0.741 | 0.975 | 0.963 | 0.716 | 0.96 | 0.954 | 1.01
P fixed | 0.691 | 1.17 | 1.14 | 1.42 | 0.762 | 0.549 | 0.947 | 0.94 | 0.939
Q fixed | 0.944 | 0.952 | 0.909 | 1.01 | 1.03 | 0.72 | 0.956 | 0.768 | 0.809
R fixed | 0.604 | 0.764 | 0.662 | 0.799 | 0.88 | 0.624 | 0.884 | 0.889 | 1.11
V fixed | 1.19 | 1.18 | 1.09 | 0.929 | 1.12 | 0.603 | 0.867 | 0.843 | 0.816
W fixed | 1.14 | 0.919 | 0.903 | 1.07 | 0.822 | 0.592 | 0.892 | 1.01 | 1.19
Y fixed | 1.23 | 1.13 | 0.95 | 1.01 | 0.991 | 0.49 | 0.995 | 0.998 | 0.953
pThr fixed | 2.93 | 1.06 | 0.942 | 1.36 | 0.888 | 1.36 | 1.34 | 0.896 | 1.1
pTyr fixed | 3.57 | 1.77 | 1.28 | 1.51 | 1.27 | 0.679 | 1.02 | 1.26 | 1.03

AURKA, construct: Full length (from UniProt O14965)
relative phosphorylation
Details | at +1 | at +2 | at +3 | at +4 | at -1 | at -2 | at -3 | at -4 | at -5
A fixed | 0.474 | 1 | 0.906 | 0.863 | 0.683 | 0.209 | 0.665 | 1.08 | 1.08
D fixed | 1.14 | 0.993 | 0.822 | 0.906 | 1.39 | 0.274 | 0.606 | 1.4 | 1
E fixed | 0.796 | 1.03 | 0.851 | 1.1 | 1.56 | 0.257 | 0.85 | 0.963 | 1.06
F fixed | 1.83 | 0.958 | 1.25 | 0.755 | 0.884 | 0.203 | 0.574 | 0.725 | 0.83
G fixed | 0.647 | 1.76 | 1.48 | 1.05 | 0.689 | 0.32 | 1.38 | 1.23 | 1.18
H fixed | 0.665 | 1.3 | 1.32 | 1.18 | 1.09 | 0.341 | 0.964 | 0.952 | 1.08
I fixed | 1.66 | 1.03 | 0.865 | 0.931 | 0.637 | 0.162 | 0.46 | 0.706 | 0.874
K fixed | 0.241 | 0.324 | 0.844 | 1.19 | 0.707 | 1.32 | 1.58 | 1.35 | 1.38
L fixed | 2.05 | 0.784 | 0.812 | 0.649 | 1.32 | 0.182 | 0.367 | 0.766 | 0.753
M fixed | 1.76 | 0.832 | 0.752 | 1 | 1.38 | 0.176 | 0.541 | 0.818 | 0.722
N fixed | 0.852 | 0.649 | 0.798 | 1.26 | 1.15 | 0.345 | 0.857 | 1.04 | 1.2
P fixed | 0.211 | 0.78 | 1.3 | 0.969 | 0.748 | 0.289 | 0.883 | 0.905 | 0.738
Q fixed | 0.735 | 0.629 | 0.843 | 1.06 | 1.09 | 0.608 | 0.667 | 0.908 | 0.802
R fixed | 0.425 | 0.509 | 0.821 | 1.24 | 1.16 | 11.7 | 4.83 | 1.71 | 1.67
V fixed | 1.11 | 0.766 | 0.775 | 0.682 | 0.601 | 0.163 | 0.425 | 0.699 | 0.759
W fixed | 1.26 | 0.881 | 1.2 | 1.22 | 0.587 | 0.232 | 0.779 | 0.966 | 0.906
Y fixed | 1.14 | 2.77 | 1.36 | 0.948 | 1.33 | 0.185 | 0.574 | 0.782 | 0.964
pThr fixed | 1.61 | 1.26 | 1.07 | 1.53 | 0.588 | 0.374 | 0.879 | 0.972 | 1.04
pTyr fixed | 0.836 | 1.53 | 1.74 | 1.43 | 2.24 | 0.356 | 1 | 0.962 | 1.3
